How the values were obtained:
AGO1 = AGO1 (UniProt Q9UL18); test: EC50 of free RNA motif oligo competing protein binding to immobilised probe
Outline: (§1)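 Free RNA oligos (0 nM to 30 μM) competed for 1 h at 4°C in HEK293-FT lysate (2.5 mg protein/well) before a 30 min, 4°C pulldown with the same oligos on NHS-Sepharose beads. Bound proteins were quantified by label-free LC-MS/MS and normalised to the control. Kd was found by multiplying EC50, from a four-parameter log-logistic fit, by a protein-dependent depletion factor.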

RPS17 = RPS17 (UniProt P08708); test: as above
Outline: as §1

CPSF4 = CPSF4 (UniProt O95639); test: as above
Outline: as §1

GNB2L1 = GNB2L1 (UniProt P63244); test: as above
Outline: as §1

PRPF4 = biological target: T1, PRPF4 (UniProt O43172); test: Kd (EC50 corrected by depletion factor)
T1 sequence: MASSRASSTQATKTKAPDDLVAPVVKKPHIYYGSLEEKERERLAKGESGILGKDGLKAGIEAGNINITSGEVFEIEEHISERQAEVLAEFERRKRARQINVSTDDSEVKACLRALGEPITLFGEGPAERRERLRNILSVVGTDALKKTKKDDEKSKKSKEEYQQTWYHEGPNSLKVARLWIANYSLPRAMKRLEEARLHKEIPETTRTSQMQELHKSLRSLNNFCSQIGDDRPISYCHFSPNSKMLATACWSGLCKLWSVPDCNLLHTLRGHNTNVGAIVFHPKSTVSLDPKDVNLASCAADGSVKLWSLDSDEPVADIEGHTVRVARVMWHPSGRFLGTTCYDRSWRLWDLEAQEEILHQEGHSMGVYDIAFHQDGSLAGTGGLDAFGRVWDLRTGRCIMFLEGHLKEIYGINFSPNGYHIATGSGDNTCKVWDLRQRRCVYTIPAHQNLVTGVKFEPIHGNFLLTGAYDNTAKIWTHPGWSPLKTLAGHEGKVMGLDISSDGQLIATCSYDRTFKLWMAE
Outline: as §1

MEX3C = biological target: T2, MEX3C (UniProt Q5U5Q3); test: EC50 of free RNA motif oligo competing protein binding to immobilised probe
T2 sequence: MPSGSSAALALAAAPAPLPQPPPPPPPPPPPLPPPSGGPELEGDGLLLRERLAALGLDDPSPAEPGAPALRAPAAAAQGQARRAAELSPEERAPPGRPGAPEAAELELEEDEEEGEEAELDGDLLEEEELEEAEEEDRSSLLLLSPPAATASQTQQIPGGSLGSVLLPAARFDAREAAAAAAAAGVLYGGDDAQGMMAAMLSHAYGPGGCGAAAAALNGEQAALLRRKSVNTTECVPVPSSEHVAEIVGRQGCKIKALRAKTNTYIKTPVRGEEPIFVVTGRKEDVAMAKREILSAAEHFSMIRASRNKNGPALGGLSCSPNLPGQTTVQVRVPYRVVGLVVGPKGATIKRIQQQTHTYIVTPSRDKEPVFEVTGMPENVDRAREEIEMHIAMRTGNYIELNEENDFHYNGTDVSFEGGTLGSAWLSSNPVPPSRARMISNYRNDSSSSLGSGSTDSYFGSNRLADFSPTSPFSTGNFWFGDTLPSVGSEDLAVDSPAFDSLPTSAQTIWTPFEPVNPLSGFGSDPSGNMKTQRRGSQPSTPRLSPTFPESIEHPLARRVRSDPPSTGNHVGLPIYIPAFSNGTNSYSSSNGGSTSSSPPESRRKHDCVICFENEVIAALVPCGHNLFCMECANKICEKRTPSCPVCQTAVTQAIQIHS
Outline: as §1

PRPF3 = biological target: T3, PRPF3 (UniProt O43395); test: as above
T3 sequence: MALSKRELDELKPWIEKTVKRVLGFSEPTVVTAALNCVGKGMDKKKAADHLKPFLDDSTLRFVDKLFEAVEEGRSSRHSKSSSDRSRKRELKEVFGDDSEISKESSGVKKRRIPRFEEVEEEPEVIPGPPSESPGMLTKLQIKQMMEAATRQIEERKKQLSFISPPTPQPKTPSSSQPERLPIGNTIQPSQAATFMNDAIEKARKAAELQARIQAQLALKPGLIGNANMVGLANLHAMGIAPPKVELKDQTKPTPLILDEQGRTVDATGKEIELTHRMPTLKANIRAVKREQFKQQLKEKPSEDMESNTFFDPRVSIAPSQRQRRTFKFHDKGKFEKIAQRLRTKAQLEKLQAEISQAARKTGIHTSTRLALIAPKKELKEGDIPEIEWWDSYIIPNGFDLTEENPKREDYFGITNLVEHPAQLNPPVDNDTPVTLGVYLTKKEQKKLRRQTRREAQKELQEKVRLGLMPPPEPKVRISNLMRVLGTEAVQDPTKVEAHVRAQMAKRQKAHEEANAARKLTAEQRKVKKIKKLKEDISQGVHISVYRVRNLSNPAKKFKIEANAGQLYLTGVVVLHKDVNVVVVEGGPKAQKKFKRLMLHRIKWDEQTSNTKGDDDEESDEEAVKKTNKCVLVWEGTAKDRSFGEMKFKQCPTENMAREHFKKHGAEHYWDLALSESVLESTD
Outline: as §1

ATIC = ATIC (UniProt P31939); test: as above
Outline: as §1

CNBP = CNBP (UniProt P62633); test: as above
Outline: as §1

MRPS7 = MRPS7 (UniProt Q9Y2R9); test: as above
Outline: as §1

PTCD3 = PTCD3 (UniProt Q96EY7); test: as above
Outline: as §1

TTC37 = TTC37 (UniProt Q6PGP7); test: as above
Outline: as §1

MRPS25 = MRPS25 (UniProt P82663); test: as above
Outline: as §1

MRPS27 = MRPS27 (UniProt Q92552); test: as above
Outline: as §1

TTC37, sequence (Q6PGP7 whole entry): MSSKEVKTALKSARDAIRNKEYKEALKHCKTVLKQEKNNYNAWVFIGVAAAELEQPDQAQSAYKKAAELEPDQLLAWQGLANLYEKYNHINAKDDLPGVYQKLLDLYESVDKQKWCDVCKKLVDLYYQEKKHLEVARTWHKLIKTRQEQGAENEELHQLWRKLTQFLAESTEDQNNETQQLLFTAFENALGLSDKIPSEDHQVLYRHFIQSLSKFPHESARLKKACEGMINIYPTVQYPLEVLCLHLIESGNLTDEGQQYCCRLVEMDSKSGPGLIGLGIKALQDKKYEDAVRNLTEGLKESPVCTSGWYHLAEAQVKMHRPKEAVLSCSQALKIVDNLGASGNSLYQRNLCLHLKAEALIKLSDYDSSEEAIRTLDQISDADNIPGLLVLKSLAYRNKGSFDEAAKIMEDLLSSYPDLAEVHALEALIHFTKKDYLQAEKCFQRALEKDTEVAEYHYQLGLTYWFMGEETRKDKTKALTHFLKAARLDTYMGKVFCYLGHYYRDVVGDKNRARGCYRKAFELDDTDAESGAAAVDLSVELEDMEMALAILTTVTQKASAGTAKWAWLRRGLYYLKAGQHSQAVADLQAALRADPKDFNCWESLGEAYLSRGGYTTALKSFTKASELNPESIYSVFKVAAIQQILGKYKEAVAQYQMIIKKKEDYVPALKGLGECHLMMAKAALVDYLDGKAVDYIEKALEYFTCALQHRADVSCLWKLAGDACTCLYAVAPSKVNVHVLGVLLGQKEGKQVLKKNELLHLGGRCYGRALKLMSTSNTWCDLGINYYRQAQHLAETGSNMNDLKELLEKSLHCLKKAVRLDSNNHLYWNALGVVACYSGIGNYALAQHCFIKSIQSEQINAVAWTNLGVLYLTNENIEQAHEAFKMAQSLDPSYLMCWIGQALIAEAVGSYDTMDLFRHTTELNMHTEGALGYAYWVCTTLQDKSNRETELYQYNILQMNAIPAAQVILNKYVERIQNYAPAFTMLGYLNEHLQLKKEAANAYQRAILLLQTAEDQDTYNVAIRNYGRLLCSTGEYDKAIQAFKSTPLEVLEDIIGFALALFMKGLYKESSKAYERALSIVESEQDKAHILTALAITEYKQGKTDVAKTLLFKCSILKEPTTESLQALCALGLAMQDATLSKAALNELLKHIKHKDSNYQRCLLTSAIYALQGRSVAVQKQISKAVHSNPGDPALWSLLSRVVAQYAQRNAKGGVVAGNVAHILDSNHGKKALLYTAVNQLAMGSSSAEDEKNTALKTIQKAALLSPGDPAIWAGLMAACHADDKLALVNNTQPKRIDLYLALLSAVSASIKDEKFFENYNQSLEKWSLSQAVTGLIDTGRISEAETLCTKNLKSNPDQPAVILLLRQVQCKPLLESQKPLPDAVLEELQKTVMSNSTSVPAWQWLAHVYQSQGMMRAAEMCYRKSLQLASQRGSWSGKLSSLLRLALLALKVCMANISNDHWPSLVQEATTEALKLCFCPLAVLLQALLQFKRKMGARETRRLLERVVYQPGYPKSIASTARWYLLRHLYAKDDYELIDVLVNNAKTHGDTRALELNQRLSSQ
CPSF4, sequence (O95639 whole entry): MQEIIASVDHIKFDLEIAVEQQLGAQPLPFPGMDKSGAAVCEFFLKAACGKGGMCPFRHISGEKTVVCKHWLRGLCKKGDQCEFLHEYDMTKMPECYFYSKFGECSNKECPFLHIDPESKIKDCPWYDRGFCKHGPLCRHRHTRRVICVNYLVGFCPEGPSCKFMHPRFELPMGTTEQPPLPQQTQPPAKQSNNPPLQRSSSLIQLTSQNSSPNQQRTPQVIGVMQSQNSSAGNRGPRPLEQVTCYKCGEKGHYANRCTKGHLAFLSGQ
ATIC, sequence (P31939 whole entry, looked up): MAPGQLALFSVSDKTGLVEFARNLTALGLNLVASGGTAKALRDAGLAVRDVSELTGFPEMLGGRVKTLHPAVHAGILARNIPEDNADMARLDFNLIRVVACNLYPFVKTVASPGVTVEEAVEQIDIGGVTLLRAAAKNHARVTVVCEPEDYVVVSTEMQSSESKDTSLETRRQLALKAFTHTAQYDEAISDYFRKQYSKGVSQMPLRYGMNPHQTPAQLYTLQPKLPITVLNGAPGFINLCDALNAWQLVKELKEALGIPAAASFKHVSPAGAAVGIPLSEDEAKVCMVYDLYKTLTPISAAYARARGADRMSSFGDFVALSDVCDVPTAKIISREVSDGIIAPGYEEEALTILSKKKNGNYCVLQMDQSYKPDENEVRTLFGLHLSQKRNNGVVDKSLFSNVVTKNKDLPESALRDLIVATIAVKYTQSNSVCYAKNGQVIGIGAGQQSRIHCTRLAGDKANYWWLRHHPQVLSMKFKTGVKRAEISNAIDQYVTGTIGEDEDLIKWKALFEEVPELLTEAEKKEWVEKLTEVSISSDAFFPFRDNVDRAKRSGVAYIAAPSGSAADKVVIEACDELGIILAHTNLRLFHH
CNBP, sequence (P62633 whole entry): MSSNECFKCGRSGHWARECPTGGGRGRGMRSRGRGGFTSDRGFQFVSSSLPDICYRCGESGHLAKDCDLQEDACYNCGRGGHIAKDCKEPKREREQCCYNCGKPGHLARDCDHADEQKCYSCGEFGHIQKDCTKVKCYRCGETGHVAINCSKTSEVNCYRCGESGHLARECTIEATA

Sequence: AAUAAA
- EC50 (AGO1): 379 nM
- EC50 (RPS17): 128 nM
- EC50 (CPSF4): 55.5 nM

Sequence: CUGUCCU
- EC50 (GNB2L1): 2980 nM

Sequence: UAUUUAU
- Kd (PRPF4): 2640 nM
- EC50 (MEX3C): 799 nM
- EC50 (PRPF3): 7130 nM
- EC50 (ATIC): 804 nM
- EC50 (CNBP): 2240 nM
- EC50 (MRPS7): 84.2 nM
- EC50 (PTCD3): 50 nM
- EC50 (TTC37): 947 nM
- EC50 (MRPS25): 17.4 nM
- EC50 (MRPS27): 82.5 nM
